Common to all, as to experiment: cell_activity
The test system of data set [1] is ZFP SBS#52389 (synthetic). The conditions noted are these: AAV2/9 CMV-52389-KRAB, 3E5 VG/cell, mouse cortical neurons.
In data set [2] the test system is ZFP SBS#57880 (synthetic). The conditions noted are these: human iPSC neurons, 3E5 VG/cell.
The test system of data set [3] is ZFP SBS#57890 (synthetic). As to conditions: human iPSC neurons, 3E5 VG/cell; poor mismatch tolerance.
Data set [4] relates to ZFP SBS#52322 (synthetic). The conditions noted are these: mouse hippocampus in vivo, mean MAPT mRNA reduction.
The subject of data set [5] is ZFP SBS#52366 (synthetic). As to conditions: human iPSC neurons, 3E5 VG/cell.

Results on five sequences are retold here after patent publication US11504389.

Consider “CCGTTGCGCCTGATTGATGCCCAGCTCC (double strand) [52389 target]”, for which the activity in data set [1] was determined as 98 % repression. On to “GCAGTCACCGCCACCCACC (double strand) [57880 human MAPT site]”, for which the activity in data set [2] came to 95 % repression. In the case of “ACCCACCAGCTCCGGCAC (double strand) [57890 human MAPT site]”, in data set [3], the activity was 45 % repression. As for “GTGGCGGAGACTGAGAGCGCGCGCGGCC (double strand) [52322 target]”, the activity in data set [4] is 66 % repression. In data set [5], “TCTGTCGACTATCAG (double strand) [52366 human MAPT site]” returned an activity of 87 % repression.
